Assay results taken from patent US7375083B2, “Pharmaceutical compositions for prevention of overdose or abuse” (Shire LLC, priority 2003, dated 2008).
Where a SMILES comes first, the peptide text is derived from it. The star is where a group is joined. X1 = COc1ccc2c3c1O[C@H]1C(O*)=CC[C@H]4[C@@H](C2)N(C)CC[C@]314

Legend:
[1] = Oral bioavailability of hydrocodone conjugates in rats, LC/MS/MS; conditions: for AUC (ng/ml h) 0-8 h / Cmax: hydrocodone plus hydromorphone; for Percent HC (AUC) / Percent HC (Cmax): relative to hydrocodone bitartrate; for Percent HC + HM (AUC) / Percent HC + HM (Cmax): relative to parameter following hydrocodone bitartrate
[2] = Intranasal bioavailability of hydrocodone conjugates in rats, LC/MS/MS; conditions: intranasal, 1 mg/kg
[3] = oral, 1 mg/kg hydrocodone base content
[4] = oral, 1 mg/kg hydrocodone base content, 0 h
[5] = oral, 1 mg/kg hydrocodone base content, 0.1 h
[6] = oral, 1 mg/kg hydrocodone base content, 1.0 h
[7] = oral, 1 mg/kg hydrocodone base content, 2.0 h
[8] = oral, 1 mg/kg hydrocodone base content, 4.0 h
[9] = oral, 2 mg/kg hydrocodone base content
[10] = oral, 2 mg/kg hydrocodone base content, 0 h
[11] = oral, 2 mg/kg hydrocodone base content, 0.1 h
[12] = oral, 2 mg/kg hydrocodone base content, 0.5 h
[13] = oral, 2 mg/kg hydrocodone base content, 1.0 h
[14] = oral, 2 mg/kg hydrocodone base content, 2.0 h
[15] = oral, 2 mg/kg hydrocodone base content, 4.0 h
[16] = oral, 5 mg/kg hydrocodone base content
[17] = oral, 5 mg/kg hydrocodone base content, 0 h
[18] = oral, 5 mg/kg hydrocodone base content, 0.1 h
[19] = oral, 5 mg/kg hydrocodone base content, 0.5 h
[20] = oral, 5 mg/kg hydrocodone base content, 1.0 h
[21] = oral, 5 mg/kg hydrocodone base content, 2.0 h
[22] = oral, 5 mg/kg hydrocodone base content, 4.0 h
[23] = oral, 25 mg/kg hydrocodone base content
[24] = oral, 25 mg/kg hydrocodone base content, 0 h
[25] = oral, 25 mg/kg hydrocodone base content, 0.1 h
[26] = oral, 25 mg/kg hydrocodone base content, 0.5 h
[27] = oral, 25 mg/kg hydrocodone base content, 1.0 h
[28] = oral, 25 mg/kg hydrocodone base content, 2.0 h
[29] = oral, 25 mg/kg hydrocodone base content, 4.0 h

SMILES: CC[C@H](C)[C@H](NC(=O)[C@H](Cc1ccccc1)NC(=O)[C@H](Cc1ccccc1)NC(=O)[C@H](Cc1ccc(O)cc1)NC(=O)[C@@H](N)Cc1ccc(O)cc1)C(=O)OC1=CC[C@H]2[C@H]3Cc4ccc(OC)c5c4[C@@]2(CCN3C)[C@H]1O5 [YYFFI[SEQ ID NO: 8]-HC, Tyr-Tyr-Phe-Phe-Ile[SEQ ID NO: 8]-(6-O)-Hydrocodone] (H-YYFFI-X1)
- Percent Decrease 1 mg/kg vs. 5 mg/kg AUC ([1]; oral bioavailability): 15%
- Percent Decrease 1 mg/kg vs. 5 mg/kg Cmax ([1]; oral bioavailability): 23%
- hydrocodone plus hydromorphone concentration ([1]; oral, 1 mg/kg dose, 0.5 Hours): 7 ng/mL
- hydrocodone plus hydromorphone concentration ([1]; oral, 1 mg/kg dose, 1.0 Hours): 3.7 ng/mL
- hydrocodone plus hydromorphone concentration ([1]; oral, 1 mg/kg dose, 1.5 Hours): 4.3 ng/mL
- hydrocodone plus hydromorphone concentration ([1]; oral, 1 mg/kg dose, 3 Hours): 1.4 ng/mL
- hydrocodone plus hydromorphone concentration ([1]; oral, 1 mg/kg dose, 5 Hours): 1.1 ng/mL
- hydrocodone plus hydromorphone concentration ([1]; oral, 1 mg/kg dose, 8 Hours): 0 ng/mL
- AUC (ng/ml h) 0-8 h ([1]; oral, 1 mg/kg dose): 14.9 ng·h/mL
- Cmax ([1]; oral, 1 mg/kg dose): 7 ng/mL
- Percent HC (AUC) ([1]; oral, 1 mg/kg dose): 110%
- Percent HC (Cmax) ([1]; oral, 1 mg/kg dose): 81%
- Hydrocodone AUC [1, 3]: 26.3
- Hydrocodone Cmax [1, 3]: 20.3 ng/mL
- Hydrocodone plus hydromorphone AUC, Percent HC relative to hydrocodone bitartrate [1, 3]: 64%
- Hydrocodone plus hydromorphone Cmax [1, 3]: 20.8 ng/mL
- Hydrocodone plus hydromorphone Cmax, Percent HC relative to hydrocodone bitartrate [1, 3]: 18%
- Hydromorphone AUC, Percent HM relative to hydrocodone bitartrate [1, 3]: 97%
- Hydromorphone Cmax [1, 3]: 2.9 ng/mL
- Hydromorphone Cmax, Percent HM relative to hydrocodone bitartrate [1, 3]: 89%
- Mean hydrocodone plus hydromorphone concentration [1, 4]: 0 ng/mL
- Mean hydromorphone concentration [1, 4]: 0 ng/mL
- Mean hydrocodone concentration ([1]; oral, 1 mg/kg hydrocodone base content, 0 Hours): 0 ng/mL
- Mean hydrocodone concentration ([1]; oral, 1 mg/kg hydrocodone base content, 0.1 Hours): 20.3 ng/mL
- Mean hydrocodone concentration ([1]; oral, 1 mg/kg hydrocodone base content, 0.5 Hours): 17.9 ng/mL
- Mean hydrocodone concentration ([1]; oral, 1 mg/kg hydrocodone base content, 1.0 Hours): 10.4 ng/mL
- Mean hydrocodone concentration ([1]; oral, 1 mg/kg hydrocodone base content, 2.0 Hours): 2.8 ng/mL
- Mean hydrocodone concentration ([1]; oral, 1 mg/kg hydrocodone base content, 4.0 Hours): 1.2 ng/mL
- Mean hydrocodone plus hydromorphone concentration [1, 5]: 20.6 ng/mL
- Mean hydromorphone concentration [1, 5]: 0.27 ng/mL
- Mean hydromorphone concentration ([1]; oral, 1 mg/kg hydrocodone base content, 0.5 h): 2.87 ng/mL
- Mean hydrocodone plus hydromorphone concentration [1, 6]: 12.8 ng/mL
- Mean hydromorphone concentration [1, 6]: 2.39 ng/mL
- Mean hydrocodone plus hydromorphone concentration [1, 7]: 5.0 ng/mL
- Mean hydromorphone concentration [1, 7]: 2.24 ng/mL
- Mean hydrocodone plus hydromorphone concentration [1, 8]: 2.2 ng/mL
- Mean hydromorphone concentration [1, 8]: 1.02 ng/mL
- Percent HC + HM (AUC) ([1]; oral, 1 mg/kg): 58%
- Percent HC + HM (Cmax) ([1]; oral, 1 mg/kg): 18%
- Hydrocodone AUC [1, 9]: 48
- Hydrocodone Cmax [1, 9]: 35.2 ng/mL
- Hydrocodone plus hydromorphone AUC, Percent HC relative to hydrocodone bitartrate [1, 9]: 103%
- Hydrocodone plus hydromorphone Cmax [1, 9]: 36.3 ng/mL
- Hydrocodone plus hydromorphone Cmax, Percent HC relative to hydrocodone bitartrate [1, 9]: 53%
- Hydromorphone AUC, Percent HM relative to hydrocodone bitartrate [1, 9]: 61%
- Hydromorphone Cmax [1, 9]: 8.7 ng/mL
- Hydromorphone Cmax, Percent HM relative to hydrocodone bitartrate [1, 9]: 48%
- Mean hydrocodone plus hydromorphone concentration [1, 10]: 0 ng/mL
- Mean hydromorphone concentration [1, 10]: 0 ng/mL
- Mean hydrocodone concentration ([1]; oral, 2 mg/kg hydrocodone base content, 0 Hours): 0 ng/mL
- Mean hydrocodone concentration ([1]; oral, 2 mg/kg hydrocodone base content, 0.1 Hours): 35.2 ng/mL
- Mean hydrocodone concentration ([1]; oral, 2 mg/kg hydrocodone base content, 0.5 Hours): 23 ng/mL
- Mean hydrocodone concentration ([1]; oral, 2 mg/kg hydrocodone base content, 1.0 Hours): 14.4 ng/mL
- Mean hydrocodone concentration ([1]; oral, 2 mg/kg hydrocodone base content, 2.0 Hours): 9.8 ng/mL
- Mean hydrocodone concentration ([1]; oral, 2 mg/kg hydrocodone base content, 4.0 Hours): 3.3 ng/mL
- Mean hydrocodone plus hydromorphone concentration [1, 11]: 36.3 ng/mL
- Mean hydromorphone concentration [1, 11]: 1.13 ng/mL
- Mean hydrocodone plus hydromorphone concentration [1, 12]: 31.7 ng/mL
- Mean hydromorphone concentration [1, 12]: 8.74 ng/mL
- Mean hydrocodone plus hydromorphone concentration [1, 13]: 18.0 ng/mL
- Mean hydromorphone concentration [1, 13]: 3.63 ng/mL
- Mean hydrocodone plus hydromorphone concentration [1, 14]: 13.2 ng/mL
- Mean hydromorphone concentration [1, 14]: 3.41 ng/mL
- Mean hydrocodone plus hydromorphone concentration [1, 15]: 4.2 ng/mL
- Mean hydromorphone concentration [1, 15]: 0.88 ng/mL
- Percent HC + HM (AUC) ([1]; oral, 2 mg/kg): 126%
- Percent HC + HM (Cmax) ([1]; oral, 2 mg/kg): 58%
- hydrocodone plus hydromorphone concentration ([1]; oral, 5 mg/kg dose, 0.5 Hours): 46 ng/mL
- hydrocodone plus hydromorphone concentration ([1]; oral, 5 mg/kg dose, 1.0 Hours): 33 ng/mL
- hydrocodone plus hydromorphone concentration ([1]; oral, 5 mg/kg dose, 1.5 Hours): 34 ng/mL
- hydrocodone plus hydromorphone concentration ([1]; oral, 5 mg/kg dose, 3 Hours): 13 ng/mL
- hydrocodone plus hydromorphone concentration ([1]; oral, 5 mg/kg dose, 5 Hours): 8.3 ng/mL
- hydrocodone plus hydromorphone concentration ([1]; oral, 5 mg/kg dose, 8 Hours): 4.5 ng/mL
- AUC (ng/ml h) 0-8 h ([1]; oral, 5 mg/kg dose): 105 ng·h/mL
- Cmax ([1]; oral, 5 mg/kg dose): 46 ng/mL
- Percent HC (AUC) ([1]; oral, 5 mg/kg dose): 86%
- Percent HC (Cmax) ([1]; oral, 5 mg/kg dose): 63%
- Hydrocodone AUC [1, 16]: 47
- Hydrocodone Cmax [1, 16]: 26.6 ng/mL
- Hydrocodone plus hydromorphone Cmax [1, 16]: 32.9 ng/mL
- Hydromorphone AUC, Percent HM relative to hydrocodone bitartrate [1, 16]: 51%
- Hydromorphone Cmax [1, 16]: 10.4 ng/mL
- Hydromorphone Cmax, Percent HM relative to hydrocodone bitartrate [1, 16]: 77%
- Mean hydrocodone plus hydromorphone concentration [1, 17]: 0 ng/mL
- Mean hydromorphone concentration [1, 17]: 0 ng/mL
- Mean hydrocodone concentration ([1]; oral, 5 mg/kg hydrocodone base content, 0 Hours): 0 ng/mL
- Mean hydrocodone concentration ([1]; oral, 5 mg/kg hydrocodone base content, 0.1 Hours): 26.6 ng/mL
- Mean hydrocodone concentration ([1]; oral, 5 mg/kg hydrocodone base content, 0.5 Hours): 22.5 ng/mL
- Mean hydrocodone concentration ([1]; oral, 5 mg/kg hydrocodone base content, 1.0 Hours): 15.1 ng/mL
- Mean hydrocodone concentration ([1]; oral, 5 mg/kg hydrocodone base content, 2.0 Hours): 10.3 ng/mL
- Mean hydrocodone concentration ([1]; oral, 5 mg/kg hydrocodone base content, 4.0 Hours): 3.6 ng/mL
- Mean hydrocodone plus hydromorphone concentration [1, 18]: 27.1 ng/mL
- Mean hydromorphone concentration [1, 18]: 0.49 ng/mL
- Mean hydrocodone plus hydromorphone concentration [1, 19]: 32.9 ng/mL
- Mean hydromorphone concentration [1, 19]: 10.41 ng/mL
- Mean hydrocodone plus hydromorphone concentration [1, 20]: 19.9 ng/mL
- Mean hydromorphone concentration [1, 20]: 4.82 ng/mL
- Mean hydrocodone plus hydromorphone concentration [1, 21]: 13.5 ng/mL
- Mean hydromorphone concentration [1, 21]: 3.17 ng/mL
- Mean hydrocodone plus hydromorphone concentration [1, 22]: 4.7 ng/mL
- Mean hydromorphone concentration [1, 22]: 1.07 ng/mL
- Percent HC + HM (AUC) ([1]; oral, 5 mg/kg): 20%
- Percent HC + HM (Cmax) ([1]; oral, 5 mg/kg): 4%
- Hydrocodone AUC [1, 23]: 135.0
- Hydrocodone Cmax [1, 23]: 41.4 ng/mL
- Hydrocodone plus hydromorphone Cmax [1, 23]: 49.4 ng/mL
- Hydromorphone AUC, Percent HM relative to hydrocodone bitartrate [1, 23]: 33%
- Hydromorphone Cmax [1, 23]: 16.2 ng/mL
- Hydromorphone Cmax, Percent HM relative to hydrocodone bitartrate [1, 23]: 37%
- Mean hydrocodone plus hydromorphone concentration [1, 24]: 0 ng/mL
- Mean hydromorphone concentration [1, 24]: 0 ng/mL
- Mean hydrocodone concentration ([1]; oral, 25 mg/kg hydrocodone base content, 0 Hours): 0 ng/mL
- Mean hydrocodone concentration ([1]; oral, 25 mg/kg hydrocodone base content, 0.1 Hours): 41.4 ng/mL
- Mean hydrocodone concentration ([1]; oral, 25 mg/kg hydrocodone base content, 0.5 Hours): 23.3 ng/mL
- Mean hydrocodone concentration ([1]; oral, 25 mg/kg hydrocodone base content, 1.0 Hours): 31.0 ng/mL
- Mean hydrocodone concentration ([1]; oral, 25 mg/kg hydrocodone base content, 2.0 Hours): 43.9 ng/mL
- Mean hydrocodone concentration ([1]; oral, 25 mg/kg hydrocodone base content, 4.0 Hours): 25.0 ng/mL
- Mean hydrocodone plus hydromorphone concentration [1, 25]: 49.4 ng/mL
- Mean hydromorphone concentration [1, 25]: 8.00 ng/mL
- Mean hydrocodone plus hydromorphone concentration [1, 26]: 33.7 ng/mL
- Mean hydromorphone concentration [1, 26]: 10.35 ng/mL
- Mean hydrocodone plus hydromorphone concentration [1, 27]: 43.7 ng/mL
- Mean hydromorphone concentration [1, 27]: 12.70 ng/mL
- Mean hydrocodone plus hydromorphone concentration [1, 28]: 60.1 ng/mL
- Mean hydromorphone concentration [1, 28]: 16.22 ng/mL
- Mean hydrocodone plus hydromorphone concentration [1, 29]: 34.0 ng/mL
- Mean hydromorphone concentration [1, 29]: 8.98 ng/mL
- Percent HC + HM (AUC) ([1]; oral, 25 mg/kg): 32%
- Percent HC + HM (Cmax) ([1]; oral, 25 mg/kg): 10%
- Peak levels and bioavailability ([1]; rat, oral, 5 mg/kg): substantially decreased
- Mean HC (hydrocodone) concentration ([2]; 0 min): 0 ng/mL
- Mean HC + HM concentration ([2]; 0 min): 0 ng/mL
- Mean HM (hydromorphone) concentration ([2]; 0 min): 0 ng/mL
- Mean HC (hydrocodone) concentration ([2]; 5 min): 28 ng/mL
- Mean HC + HM concentration ([2]; 5 min): 28 ng/mL
- Mean HM (hydromorphone) concentration ([2]; 5 min): bql^3
- Mean HC (hydrocodone) concentration ([2]; 15 min): 27 ng/mL
- Mean HC + HM concentration ([2]; 15 min): 27 ng/mL
- Mean HM (hydromorphone) concentration ([2]; 15 min): bql^4
- Mean HC (hydrocodone) concentration ([2]; 30 min): 16 ng/mL
- Mean HC + HM concentration ([2]; 30 min): 16 ng/mL
- Mean HM (hydromorphone) concentration ([2]; 30 min): bql^5
- Mean HC (hydrocodone) concentration ([2]; 60 min): 21 ng/mL
- Mean HC + HM concentration ([2]; 60 min): 21 ng/mL
- Mean HM (hydromorphone) concentration ([2]; 60 min): bql^6
